Data reported in the DeepSol protein solubility set.

assay: soluble on expression in E. coli; label from the status in PepcDB or PDB records

Sequence | soluble on expression in E. coli
MLMKVAEFERLFRQAAGLDVDKNDLKRVSDFLRNKLYDLLAVAERNAKYNGRDLIFEPDLPIAKGLQETLQEFRRMDTALELKPVLDALAALPPLDLEVAEDVRNLLPELAGALVVAYARVLKELDPALKNPQTEHHERAERVFNLLL | soluble
MPTPPGQSSSQPLPAKELGYFKKIVKSYEQKQYKAGLKFAQKILTSPGFAEHGETLAMKGLILNCMGKLQEAQDCVRRGLVSDLRSYVCWHVFGLIQKTEKKYDEAIKAYKRALMLEKDNLQILRDLSLLQIHIRDYDGYLSSKYELLQLRQTQRVSWLGYIVAHHLLKEHNLALGIMAEYIKNNTPSGYDFEFSELILYQNLIMREAGLPDVALQKLEENSTHIVDKVAYMETRANLLMDLEQPKQAENVWRALIERNPDSLEYYDMLEKCMGIKDSPKAQLAMLDGLAEKFKRAAAPRRLALYLVEGEELRRRLHEWMIPMLRKGAPSLFASLVPLYKYPQKQAVIESLITEYVKKMDDEGYGNVSLDGKDQECEPPTTALWLYVLASHHFDRCGMTQLALNYIERAIQHTPTVVENYMLKARIYKHAGDYDEAARWMEEAQSLDTADRYINGKCGKYLLRAKRSDEANKMLAKFTREGENAASHLTDMQCMWYELESGRAFRSVNKYGEALRKAHHIDFHFNTWIEDQYDFHTYCLRKMTLCSYIRLLRMCDKLRDADYYYQGAKLAIKIYLRMIDRPDDMNEHSALIKEGMTDQEIKKMKKKLKKQKELQEEEEKKKKDKEQKEEGLQRGPQIDAEALLKTEDPLGEAAKFCHNIHTFGTQKVTGYALCAEVYRRKGKVLLALKCLNEGEDREPTHPLLHVQKVKFLAYWPKCELSGLVKETADELMKCVYGAERDAAELNEKFKIEHQHDFAHRLAYAEAQYSIDSSTNLISWILKSIEDSKVNGRSLKMMIKLKDGIEYGKYGKWSKDDMEKLRKQVHSLFPLSLDFGGGVQHKSASAAPTSAETN | not soluble
MAPEDGSLDRWQWYPKEKGEYSALYPRSWYEYKDVFKSELICEQFSPVWGGNYQESSYPLAVFDWTVHNPTDKPITLSIMLTWQNSVGWFTNAIKSPTVKLRDDGSPEYEYQPRWGDSTGNFNQWIQDGFRVGCLFNRVQPHEALREGEGQMCIASVSNPSVEVFYHNRWNPSGDGADVWDWFAGNGSLPDIQDETAAEPGEQIAGAICLRFTVRPGKTKKIPFLLAWDLPITEFAQGVTYYRRYTDFYGRNGKNVWSMIRTALKHSDTWRKKIEAWQAPILENPRLPDWLKMSLFNELYLLTQGGTLWTAATENDPVGQFGVCECMDYRWYESLDVRLYGSFGLLMHWPKLEQAVMLAFARAIPTEDPKERVIGYNLSLAPRKVKNATPHDLGAPNEHPWERSNYTAYQDCNLWKDLGSDFVLLVYRDFLLLPDADGEFLGECWPSIVAALDYLKGFDLDNDGIPENSGAPDQTFDDWRLQGISAYCGGLWIAALEAALVMGQYLLENPPQQTDLDAMEIQTAIARYETWLAQARSLYQDTLWNGEYYNLDSQSGSKVVMADQLCGQFYARLLNLPDVVEHHYAEKALAKVYDTCFLKFAHGELGAANGLLPDGSPQNPNDTHPLEVWTGINFGLAAFLIQMGMKEEALKMTETVVNQVYNNGLQFRTPEAITAVGTFRASHYLRAMAIWAVYGLLEGFSNLPIAPADDEVPTSDFYLEHHHHHH | not soluble
MVLDQGDVISRINEGAISSSLEDLAKETGKEVRFVTIHRLDYGETPESFAQALFEKWFPSKEAQANQILLVLDTVTNGTAIITGDEVKPLLTDTIANSVAEETLAAPLRDGNKYNQAFLDASDRLVAVLSGQPDPGPPQIVDKLEHHHHHH | soluble
QPAHSLWLDLTQGEEALLKGMKEMHRRNARLALKRVALSVEGEEAFAEFYRLFTETNRRARLLQHDEAYYRAVLKEMNQPLGEAFLALARKDGEALAAGLFVAFAGKVAYLYGGSTRKHPEAKAPMGMHLAAIRHGMARGYRVYDLWGIPKNPRGSHAEGIHRFKEGFGGQRVQFPA | not soluble
MSRPKAIVRHGKRDTIVALLGWAGAVDRNVEKYAGIYQKKGYTTVQFTALAAVKGWGTKDGRNVDHLASTLDSVLINPSNRLVFHVFSMNGFIALTSLDSQFPELKAIEKCDGIFMDSCPACFSFSIENMQKHALVMNHVYDQLIKNSNFVLGNFYKVYKKWETARFGYQMIMDTMSIKAGLCTIEEANPFFYLLNHPHLPPILTSIFSDNDIVCSADEINLFNECAAKKSDKKRQIMATRLKDTAHVEHFRKYPKLYLEKMDEFLQKVEKLRNGGNSKL | not soluble
MRNKPFYLLCAFLWLAVSHALAADSTITIRGYVRDNGCSVAAESTNFTVDLMENAAKQFNNIGATTPVVPFRILLSPCGNAVSAVKVGFTGVADSHNANLLALENTVSAASGLGIQLLNEQQNQIPLNAPSSAISWTTLTPGKPNTLNFYARLMATQVPVTAGHINATATFTLEYQ | not soluble
MGSDKIHHHHHHMINLNGNSSSSRQVTFITHPSIQSKAFASYLSETLMAPVVLQNINKPLAQRLAKDSVILFDIAVSNKKLNGVWRDIIRLQADNPRLLIINSAQKYELYEMAQWPALYGVFRHDDDESRLIEGVKAVLNGEQTAELSVMHPAMYAADHASTPVENSPLTERECEILNELRCGATNLDIARALFISENTVRTHLYNVFRKLSVKNRTQAVSWANEHLRH | not soluble
MSYRESRQRLERLTESPSHLTIWRRMQELSYESKFEYESFVSADGTKLHAKRSKKLDVKVIAGKSVIVGINESHREMRGEYDVKATVVGDADRDLSCF | not soluble
MAHHHHHHMGPTPYQDKPYPVQPHNLNEFQQPPDTWRKSPFMSKLMDQALPVYDDVVTGSGRLYWQEPAKVWHLFEADDTLILEEHDREEWNERPYVAVNHLYEPPIGSEERPIRVEAVGNPGDQQIVMCFGNCAPHVPQSTYYMMMKGYSKNKCPMCQQWFYIHNRPWLVMHPDWTDEPAADEGPAYTFAEIEAEFDRDFHEFAVYLNAE | not soluble
MDNEKGLLIVLSGPSGVGKGTVRKRIFEDPSTSYKYSISMTTRQMREGEVDGVDYFFKTRDAFEALIKDDQFIEYAEYVGNYYGTPVQYVKDTMDEGHDVFLEIEVEGAKQVRKKFPDALFIFLAPPSLEHLRERLVGRGTESDEKIQSRINEARKEVEMMNLYDYVVVNDEVELAKNRIQCIVEAEHLKRERVEAKYRKMILEAKK | soluble
MLNNPVGWFEIYVNDMERAKTFYETVLKVSLEEMPNPTSMPIKMLTFPSNMEKYGASGALVKMEGICAGGGGTLIYFSSDDCAVEQERIVAAGGQIHTPKMSIGEYGFITLAVDTEGNLFGLHSMQ | not soluble
SSGGKSAQGPEEGGVCITEALITKRNLTFPEDGELSEKMFHTLDELQTVRLDREGITTIRNLEGLQNLHSLYLQGNKIQQIENLACIPSLRFLSLAGNQIRQVENLLDLPCLQFLDLSENLIETLKLDEFPQSLLILNLSGNSCTNQDGYRELVTEALPLLLDLDGQPVVERWISDEEDEASSDEEFPELSGPFCSERGFLKELEQELSRHREHRQQTALTEHLLRMEMQPTLTDLPLLPGVPMAGDSSPSATPAQGEETVPEAVSSPQASSPTKKPCSLIPRGHQSSFWGRKGARAATAPKASVAEAPSTTKTTAKRSKK | soluble
DAYIGVLIDDLVTKGTNEPYRLLTSRAEYRLLLRHDNADLRLTDMGYELGMISEERYARFNEKRQQIDAEIKRLSDIRIKPNEHTQAIIEQHGGSRLKDGILAIDLLRRPEMTYDIILEILEEEHQLNADVEEQVEIQTKYEGYINKSLQQVEKVKRMEEKKIPEDLDYSKIDSLATEAREKLSEVKPLNIAQASRISGVNPADISILLIYLEQG | not soluble
MGKGLLGKRVAIGGSRKTEEISTIIEKQGGIPVIRPLQGTVYLAEKQVEPDLRTFAEEKADWVIFTTGIGLETLVDMAEKIGLKDEFLQAIRQAKAACRGYKTLSALKKLGITPEASDEDGTTRGLIRSLEPHDFSGKTVMVQLHGEKAPALMAFLEEKGASVLPILPYQHIPPEEETVERLCRELMNDEVDAVCFTTAIQVRSLFDFAKGRGYINEVKKVFEERAIAAAVGKVTAEALREEGITRLLAPEIERMGAMIVELAKYYEEKE | not soluble
MGSDKIHHHHHHNRDPHEGERGLTVAIDNTQCPDVPIGAIKLYIYGTGGNLYATYNYADARGIASVLHPLEAGHYTVAVVINADEEAAETSTLTALHEWLEIEMSHETNLLSGIAEVNVTEDGISPVTVFLQRGVFTLSTLRLQLTLPAPKLPDYTPEKSKTRAAGTANTIRCVAELCKAGTDIVVLHKAVTPVPQADGTYLVELELAEGSYDLRLWTDYARADNPLADTFYHTESLKAVTIVTKPYTANTDAKDAAYYNKSDITLSKEGATMNVQLQRPLAKYRLIAKDVENYRKLMEAKPDIYPPLKNLTVKVLYEGYFPSGFNVSTGKPNDAVGGISYSQVSLHYNDVDNEVLLGGDWVLVNGTESLVNVTVTVTDNLGNTLCRASGVKINYRNSHLTTVYGNFLTAGINKGGIDINTEWSGIYNVWF | not soluble
MGSDKIHHHHHHMMAKGTLCVLDPASILVVAPHFKRRLSGVTSTVVQLIPQQRRRGLAIATLGPGLPETMPALTFAQMPALWKKPRGASHRVWHARRNLEMLVGVVLRDVLRMPLKLLFTSAAQRHHSRYTRWLISKMDAVVATSARSGSFLHVPHSVIRHGIDTELFHPPQGAEDRIAATNLPGDYLIGCFGRVRHQKGTDLFVKAMIELLPRYPGWTAVVSGRVTPEHKGFAEGLKAQIAAASLTERIVFLGEVEDIKPWYRRLTLYVAPSRNEGFGLTPLEAMASETVVVASDAGAYAELIAEGATGAVVAADAYAPLRDAIEPYLADPGRACLHGKAAVAHVRENFALAREAAGLEAVYSRLLGRPVIAPPAPQP | not soluble
MKGSTIGTETKECGKETDFCYNGTADISSFSKFQKAGCNTVICQFHANKCFEQNVSGQLLTFCCCNTDDLCNGGAVTDSGSLFDRGLSVLKGLVSAGKK | not soluble
MGSDKIHHHHHHMAYSDTPEQSAVINWKGRHLVVNAFAGTGKTTTLVRYAQANPDRRMLYLAYNRAVRDDAERKFPFNVECKTSHQLAWMKFGKHLKPRLTPNLRITDVARKLNTRHWPLVRMALAALNHFLCSASPALSYEHLPDENNREGLDAGNILGAAQFLWNEMSRIDSTFPVTHDTYLKLFQLSVPDLSKRWDTILFDEAQDANPVISSLVLTQNCNVVLVGDRHQQIYRFRGADNALNAPVLEGADRLWLTQSFRFGSAVAEMANVLLARQEETHPVIGNGGDDDVIDRLPADVSRYTILSRTVAGVIGAALYESMKEKIVYWVGGIEGYKTEELEDLYWFSVDMPERMRTPRLSREYRDFEEYKSMTKATGDVEMNQAIGLLDKYFPLPQKLQVLRSQATTNEKDADVVVSTAHRSKGLEWDTVMLNDDFSDITDPLLSEAARTDETNLLYVATTRARKLLVRNELLKLLCEQEESDDIAEDQFTDSNLI | not soluble
MERHVPEPTHTLEGWHVLHDFRLLDFARWFSAPLEAREDAWEELKGLVREWRELEEAGQGSYGIYQVVGHKADLLFLNLRPGLDPLLEAEARLSRSAFARYLGRSYSFYSVVELGSQEKPLDPESPYVKPRLTPRVPKSGYVCFYPMNKRRQGQDNWYMLPAKERASLMKAHGETGRKYQGKVMQVISGAQGLDDWEWGVDLFSEDPVQFKKIVYEMRFDEVSARYGEFGPFFVGKYLDEEALRAFLGL | soluble
EQSAYRIHSAYMVGGGGSITRDTYLSPLRYGGWTLNLLGEKTFPLKASDSRWMIRTGHELDFALMDNPANNAHFYSLLYNGSAAALYRLGAKHLRAAWMDNLRLAFGPGLEIGLGGIYSTRNGNNPATLKLYTNAIAQASIGYYVPSETFPLYFRLLSQINLFGIAYGNGFGESYYENFLLNNGIAGSLHFTYPGKFTRFTTLITADIPIRNFCTLRVGYRYSHLGSSLNALDTRIHSHTAFIGFVTEFYRFRGRKAMNTGRRTSLYYHD | not soluble
